Laboratory results reported in patent US20140087995A1 (published 2014).
Values belong to the binder of their own block, whether it stands above or below them. Numbered stars: 1 amine (or outer) side, 2 acyl side, 3 side chain; on linkers, the order of the positions; unused ones are H or OH. Bridge positions count the residues as written; N and C are the ends. Side chains are listed from the residue outwards. Ends that are not written are not given here. * marks the point of attachment. C20 diacid = O=C(O)CCCCCCCCCCCCCCCCCCC(=O)*; γGlu = O=C(O)[C@H](CCC(=O)[*:2])N[*:1]

Target: T1, human amylin receptor (amylin 3(a) receptor: human calcitonin receptor with RAMP-3) (human, UniProt P30988 25-474; O60896 24-148)
T1 construct: whole, on cells; also called hAmylin-R; hAmylinR
T1 sequence (looked up) 1: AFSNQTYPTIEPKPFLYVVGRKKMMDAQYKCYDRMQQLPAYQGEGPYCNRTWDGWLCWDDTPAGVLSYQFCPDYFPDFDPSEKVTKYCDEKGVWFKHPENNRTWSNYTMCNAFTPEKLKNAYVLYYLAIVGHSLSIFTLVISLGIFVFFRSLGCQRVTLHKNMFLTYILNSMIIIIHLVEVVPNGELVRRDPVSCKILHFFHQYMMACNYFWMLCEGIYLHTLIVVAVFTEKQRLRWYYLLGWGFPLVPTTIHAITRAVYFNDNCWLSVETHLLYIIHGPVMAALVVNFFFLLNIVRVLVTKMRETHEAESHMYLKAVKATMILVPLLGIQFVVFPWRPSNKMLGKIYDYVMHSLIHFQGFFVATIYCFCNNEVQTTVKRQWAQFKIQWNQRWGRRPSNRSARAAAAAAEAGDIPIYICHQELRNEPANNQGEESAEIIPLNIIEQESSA
T1 sequence (looked up) 2: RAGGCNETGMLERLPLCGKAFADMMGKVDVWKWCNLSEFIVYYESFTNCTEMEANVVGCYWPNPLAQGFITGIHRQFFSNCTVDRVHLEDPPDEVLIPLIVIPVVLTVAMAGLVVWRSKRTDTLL
Assay: SPA displacement of 125I-rat amylin, hAmylin 3(a) receptor membranes
How it was run: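 Membranes from BHK Amylin 3(a)/CRE-luc cells (35 ng/μL final) were mixed with SPA beads and test compounds in 50 mM Hepes pH 7.4 with 1 mM CaCl2, 5 mM MgCl₂, 0.1% OA and 0.02% Tween20. Incubation ran 120 min at 25° C with shaking; IC₅₀ came from one-site competition fitting.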

IC50: 0.828 nM
B1: N^ε1-[(4S)-4-carboxy-4-(19-carboxynonadecanoylamino)butanoyl]-[Glu14,Arg17,Pro21,Pro27,Arg35]-h-amylin (peptide)
peptide: K([γGlu-C20 diacid])CNTATCATQRLAEFLRHSSPNFGAIPSSTNVGSRTY-NH2
modifications: disulfide 2-7; N-terminus assumed
SMILES: CC[C@H](C)[C@H](NC(=O)[C@H](C)NC(=O)CNC(=O)[C@H](Cc1ccccc1)NC(=O)[C@H](CC(N)=O)NC(=O)[C@@H]1CCCN1C(=O)[C@H](CO)NC(=O)[C@H](CO)NC(=O)[C@H](Cc1c[nH]cn1)NC(=O)[C@H](CCCNC(=N)N)NC(=O)[C@H](CC(C)C)NC(=O)[C@H](Cc1ccccc1)NC(=O)[C@H](CCC(=O)O)NC(=O)[C@H](C)NC(=O)[C@H](CC(C)C)NC(=O)[C@H](CCCNC(=N)N)NC(=O)[C@H](CCC(N)=O)NC(=O)[C@@H](NC(=O)[C@H](C)NC(=O)[C@@H]1CSSC[C@H](NC(=O)[C@@H](N)CCCCNC(=O)CC[C@H](NC(=O)CCCCCCCCCCCCCCCCCCC(=O)O)C(=O)O)C(=O)N[C@@H](CC(N)=O)C(=O)N[C@@H]([C@@H](C)O)C(=O)N[C@@H](C)C(=O)N[C@@H]([C@@H](C)O)C(=O)N1)[C@@H](C)O)C(=O)N1CCC[C@H]1C(=O)N[C@@H](CO)C(=O)N[C@@H](CO)C(=O)N[C@H](C(=O)N[C@@H](CC(N)=O)C(=O)N[C@H](C(=O)NCC(=O)N[C@@H](CO)C(=O)N[C@@H](CCCNC(=N)N)C(=O)N[C@H](C(=O)N[C@@H](Cc1ccc(O)cc1)C(N)=O)[C@@H](C)O)C(C)C)[C@@H](C)O
notes: also called 51; compound 51

IC50: 0.876 nM
B2: N^ε1-[(4S)-4-carboxy-4-(19-carboxynonadecanoylamino)butanoyl]-[His14,Arg17,Pro21,Pro27,Arg34]-h-amylin (peptide)
peptide: K([γGlu-C20 diacid])CNTATCATQRLAHFLRHSSPNFGAIPSSTNVGRNTY-NH2
modifications: disulfide 2-7; N-terminus assumed
SMILES: CC[C@H](C)[C@H](NC(=O)[C@H](C)NC(=O)CNC(=O)[C@H](Cc1ccccc1)NC(=O)[C@H](CC(N)=O)NC(=O)[C@@H]1CCCN1C(=O)[C@H](CO)NC(=O)[C@H](CO)NC(=O)[C@H](Cc1c[nH]cn1)NC(=O)[C@H](CCCNC(=N)N)NC(=O)[C@H](CC(C)C)NC(=O)[C@H](Cc1ccccc1)NC(=O)[C@H](Cc1c[nH]cn1)NC(=O)[C@H](C)NC(=O)[C@H](CC(C)C)NC(=O)[C@H](CCCNC(=N)N)NC(=O)[C@H](CCC(N)=O)NC(=O)[C@@H](NC(=O)[C@H](C)NC(=O)[C@@H]1CSSC[C@H](NC(=O)[C@@H](N)CCCCNC(=O)CC[C@H](NC(=O)CCCCCCCCCCCCCCCCCCC(=O)O)C(=O)O)C(=O)N[C@@H](CC(N)=O)C(=O)N[C@@H]([C@@H](C)O)C(=O)N[C@@H](C)C(=O)N[C@@H]([C@@H](C)O)C(=O)N1)[C@@H](C)O)C(=O)N1CCC[C@H]1C(=O)N[C@@H](CO)C(=O)N[C@@H](CO)C(=O)N[C@H](C(=O)N[C@@H](CC(N)=O)C(=O)N[C@H](C(=O)NCC(=O)N[C@@H](CCCNC(=N)N)C(=O)N[C@@H](CC(N)=O)C(=O)N[C@H](C(=O)N[C@@H](Cc1ccc(O)cc1)C(N)=O)[C@@H](C)O)C(C)C)[C@@H](C)O
notes: also called 85; compound 85

IC50: 0.098 nM
B3: N^ε1-[(4S)-4-carboxy-4-(19-carboxynonadecanoylamino)butanoyl]-[His14,Arg17,Pro21,Pro27,Pro31]-h-amylin (peptide)
peptide: K([γGlu-C20 diacid])CNTATCATQRLAHFLRHSSPNFGAIPSSTPVGSNTY-NH2
modifications: disulfide 2-7; N-terminus assumed
SMILES: CC[C@H](C)[C@H](NC(=O)[C@H](C)NC(=O)CNC(=O)[C@H](Cc1ccccc1)NC(=O)[C@H](CC(N)=O)NC(=O)[C@@H]1CCCN1C(=O)[C@H](CO)NC(=O)[C@H](CO)NC(=O)[C@H](Cc1c[nH]cn1)NC(=O)[C@H](CCCNC(=N)N)NC(=O)[C@H](CC(C)C)NC(=O)[C@H](Cc1ccccc1)NC(=O)[C@H](Cc1c[nH]cn1)NC(=O)[C@H](C)NC(=O)[C@H](CC(C)C)NC(=O)[C@H](CCCNC(=N)N)NC(=O)[C@H](CCC(N)=O)NC(=O)[C@@H](NC(=O)[C@H](C)NC(=O)[C@@H]1CSSC[C@H](NC(=O)[C@@H](N)CCCCNC(=O)CC[C@H](NC(=O)CCCCCCCCCCCCCCCCCCC(=O)O)C(=O)O)C(=O)N[C@@H](CC(N)=O)C(=O)N[C@@H]([C@@H](C)O)C(=O)N[C@@H](C)C(=O)N[C@@H]([C@@H](C)O)C(=O)N1)[C@@H](C)O)C(=O)N1CCC[C@H]1C(=O)N[C@@H](CO)C(=O)N[C@@H](CO)C(=O)N[C@H](C(=O)N1CCC[C@H]1C(=O)N[C@H](C(=O)NCC(=O)N[C@@H](CO)C(=O)N[C@@H](CC(N)=O)C(=O)N[C@H](C(=O)N[C@@H](Cc1ccc(O)cc1)C(N)=O)[C@@H](C)O)C(C)C)[C@@H](C)O
notes: also called 62; compound 62

IC50: 0.396 nM
B4: N^ε1-[(4S)-4-carboxy-4-(19-carboxynonadecanoylamino)butanoyl]-[His14,Arg17,Pro21,Pro27,His35]-h-amylin (peptide)
peptide: K([γGlu-C20 diacid])CNTATCATQRLAHFLRHSSPNFGAIPSSTNVGSHTY-NH2
modifications: disulfide 2-7; N-terminus assumed
SMILES: CC[C@H](C)[C@H](NC(=O)[C@H](C)NC(=O)CNC(=O)[C@H](Cc1ccccc1)NC(=O)[C@H](CC(N)=O)NC(=O)[C@@H]1CCCN1C(=O)[C@H](CO)NC(=O)[C@H](CO)NC(=O)[C@H](Cc1c[nH]cn1)NC(=O)[C@H](CCCNC(=N)N)NC(=O)[C@H](CC(C)C)NC(=O)[C@H](Cc1ccccc1)NC(=O)[C@H](Cc1c[nH]cn1)NC(=O)[C@H](C)NC(=O)[C@H](CC(C)C)NC(=O)[C@H](CCCNC(=N)N)NC(=O)[C@H](CCC(N)=O)NC(=O)[C@@H](NC(=O)[C@H](C)NC(=O)[C@@H]1CSSC[C@H](NC(=O)[C@@H](N)CCCCNC(=O)CC[C@H](NC(=O)CCCCCCCCCCCCCCCCCCC(=O)O)C(=O)O)C(=O)N[C@@H](CC(N)=O)C(=O)N[C@@H]([C@@H](C)O)C(=O)N[C@@H](C)C(=O)N[C@@H]([C@@H](C)O)C(=O)N1)[C@@H](C)O)C(=O)N1CCC[C@H]1C(=O)N[C@@H](CO)C(=O)N[C@@H](CO)C(=O)N[C@H](C(=O)N[C@@H](CC(N)=O)C(=O)N[C@H](C(=O)NCC(=O)N[C@@H](CO)C(=O)N[C@@H](Cc1c[nH]cn1)C(=O)N[C@H](C(=O)N[C@@H](Cc1ccc(O)cc1)C(N)=O)[C@@H](C)O)C(C)C)[C@@H](C)O
notes: also called 66; compound 66

IC50: 0.271 nM
B5: N^ε1-[(4S)-4-carboxy-4-(19-carboxynonadecanoylamino)butanoyl]-[His14,Arg17,Pro21,Pro27,His34]-h-amylin (peptide)
peptide: K([γGlu-C20 diacid])CNTATCATQRLAHFLRHSSPNFGAIPSSTNVGHNTY-NH2
modifications: disulfide 2-7; N-terminus assumed
SMILES: CC[C@H](C)[C@H](NC(=O)[C@H](C)NC(=O)CNC(=O)[C@H](Cc1ccccc1)NC(=O)[C@H](CC(N)=O)NC(=O)[C@@H]1CCCN1C(=O)[C@H](CO)NC(=O)[C@H](CO)NC(=O)[C@H](Cc1c[nH]cn1)NC(=O)[C@H](CCCNC(=N)N)NC(=O)[C@H](CC(C)C)NC(=O)[C@H](Cc1ccccc1)NC(=O)[C@H](Cc1c[nH]cn1)NC(=O)[C@H](C)NC(=O)[C@H](CC(C)C)NC(=O)[C@H](CCCNC(=N)N)NC(=O)[C@H](CCC(N)=O)NC(=O)[C@@H](NC(=O)[C@H](C)NC(=O)[C@@H]1CSSC[C@H](NC(=O)[C@@H](N)CCCCNC(=O)CC[C@H](NC(=O)CCCCCCCCCCCCCCCCCCC(=O)O)C(=O)O)C(=O)N[C@@H](CC(N)=O)C(=O)N[C@@H]([C@@H](C)O)C(=O)N[C@@H](C)C(=O)N[C@@H]([C@@H](C)O)C(=O)N1)[C@@H](C)O)C(=O)N1CCC[C@H]1C(=O)N[C@@H](CO)C(=O)N[C@@H](CO)C(=O)N[C@H](C(=O)N[C@@H](CC(N)=O)C(=O)N[C@H](C(=O)NCC(=O)N[C@@H](Cc1c[nH]cn1)C(=O)N[C@@H](CC(N)=O)C(=O)N[C@H](C(=O)N[C@@H](Cc1ccc(O)cc1)C(N)=O)[C@@H](C)O)C(C)C)[C@@H](C)O
notes: also called 81; compound 81

IC50: 0.169 nM
B6: N^ε1-[(4S)-4-carboxy-4-(19-carboxynonadecanoylamino)butanoyl]-[His14,Arg17,Pro21,Pro27]-h-amylin (peptide)
peptide: K([γGlu-C20 diacid])CNTATCATQRLAHFLRHSSPNFGAIPSSTNVGSNTY-NH2
modifications: disulfide 2-7; N-terminus assumed
SMILES: CC[C@H](C)[C@H](NC(=O)[C@H](C)NC(=O)CNC(=O)[C@H](Cc1ccccc1)NC(=O)[C@H](CC(N)=O)NC(=O)[C@@H]1CCCN1C(=O)[C@H](CO)NC(=O)[C@H](CO)NC(=O)[C@H](Cc1c[nH]cn1)NC(=O)[C@H](CCCNC(=N)N)NC(=O)[C@H](CC(C)C)NC(=O)[C@H](Cc1ccccc1)NC(=O)[C@H](Cc1c[nH]cn1)NC(=O)[C@H](C)NC(=O)[C@H](CC(C)C)NC(=O)[C@H](CCCNC(=N)N)NC(=O)[C@H](CCC(N)=O)NC(=O)[C@@H](NC(=O)[C@H](C)NC(=O)[C@@H]1CSSC[C@H](NC(=O)[C@@H](N)CCCCNC(=O)CC[C@H](NC(=O)CCCCCCCCCCCCCCCCCCC(=O)O)C(=O)O)C(=O)N[C@@H](CC(N)=O)C(=O)N[C@@H]([C@@H](C)O)C(=O)N[C@@H](C)C(=O)N[C@@H]([C@@H](C)O)C(=O)N1)[C@@H](C)O)C(=O)N1CCC[C@H]1C(=O)N[C@@H](CO)C(=O)N[C@@H](CO)C(=O)N[C@H](C(=O)N[C@@H](CC(N)=O)C(=O)N[C@H](C(=O)NCC(=O)N[C@@H](CO)C(=O)N[C@@H](CC(N)=O)C(=O)N[C@H](C(=O)N[C@@H](Cc1ccc(O)cc1)C(N)=O)[C@@H](C)O)C(C)C)[C@@H](C)O
notes: also called 70; compound 70
